# In PMC3936849, “MB109 as bioactive human bone morphogenetic protein-9 refolded and purified from E. coli inclusion bodies” (Microbial Cell Factories, 2014):
# Target: the molecule itself
# Assay: non-reduced SDS-PAGE; SEC-purified denatured monomeric MB109 refolded by rapid dilution (CHAPS, NaCl, EDTA, GSH/GSSG, Tris-HCl, 4°C, 7 days); supernatants run on non-reduced 12% SDS-PAGE; disulfide-linked dimer
protein,measurement,value
"MB109 (E. coli-derived mature domain of human bone morphogenetic protein-9, refolded functional dimer) (ligand, engineered first methionine (translational start) directly before Ser320; mature domain of human BMP-9, Ser320-Arg429 (110 amino acids) of the 429-residue polypeptide; Disulfide-linked homodimer of the mature domain; pET21a between NdeI and XhoI with a 3' stop codon; also called hBMP-9 mature domain; human BMP-9) MSAGAGSHCQKTSLRVNFEDIGWDSWIIAPKEYEAYECKGGCFFPLADDVTPTKHAIVQTLVHLKFPTKVGKACCVPTKLSPISVLYKDDMGVPTLKYHYEGMSVAECGCR",stoichiometry N,2
